# Reference: PMC11182015, “Cytosolic RNA binding of the mitochondrial TCA cycle enzyme malate dehydrogenase”
# T1: MDH2 preprotein (malate dehydrogenase 2, mitochondrial), with N-terminal MTS (Homo sapiens, UniProt P40926 1-338)
# T1 sequence: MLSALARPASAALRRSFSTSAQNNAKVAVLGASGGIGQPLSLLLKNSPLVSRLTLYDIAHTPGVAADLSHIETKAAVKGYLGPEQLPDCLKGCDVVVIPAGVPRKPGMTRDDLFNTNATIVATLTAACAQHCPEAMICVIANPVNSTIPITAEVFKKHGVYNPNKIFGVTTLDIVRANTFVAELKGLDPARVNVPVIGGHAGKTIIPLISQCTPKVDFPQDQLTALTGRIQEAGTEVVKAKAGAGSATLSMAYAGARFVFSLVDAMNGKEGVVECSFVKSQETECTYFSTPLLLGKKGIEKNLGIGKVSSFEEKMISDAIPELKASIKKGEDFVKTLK
# Biological target: T1, MDH2 preprotein (malate dehydrogenase …)
# Assay: EMSA; RNA 10 nM; EMSA: 10 mM Tris-HCl pH 7.5, 150 mM NaCl, 20% glycerol, 0.5 mM DTT, 5 mM MgCl2, 0.01 ug/uL BSA, 25 C 20 min; 10 nM Cy5-RNA; native 4-15% Tris-glycine gel
# Conditions: protein: recombinant; tags: C-terminal Strep-II; label: Cy5
binder,measurement,value
AUAUUUAGCUCAGGCCCGUGGCGCC (ssRNA) [RPS23 5'-UTR control probe],Kd,1500 nM
